Data: the supplement of paper PMC9170038

Test system: K4 kissing-loop RNA reporter
Assay: apparent KD of K4 kissing-loop reporter; higher = weaker reporter binding
Details: Eterna round: R107
Procedure: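 RNA-MaP round R107: designed RNA switches with theophylline, tryptophan, arginine or FMN aptamers are transcribed on-chip within common flanks. They are titrated with a labelled K4 kissing-loop RNA reporter in RNA-MaP buffer (100 mM Tris pH 7.5, 80 mM KCl, 4 mM MgCl2), without ligand or with the indicated ligand. Median apparent KD per design.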

[1] = input ligand: theophylline 20 uM
[2] = input ligand: tryptophan 2.4 mM
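Note: bound reporter read as fluorescence of individual clusters on recovered sequencing chips by microscopy, with normalized cluster intensities fitted with a binding model.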

Sequence	apparent KD of K4 kissing-loop reporter (input ligand: FMN 200 uM) [nM]	apparent KD of K4 kissing-loop reporter (input ligand: arginine 13.2 mM) [nM]	apparent KD of K4 kissing-loop reporter (input ligand: none) [nM]	apparent KD of K4 kissing-loop reporter [1] [nM]	apparent KD of K4 kissing-loop reporter [2] [nM]
AAGGGCGGGACUUCCUCGCCGGAUAGAGAUACCAGCCCUGCAAAGGGCCCUUGGCAGCUCACUGACCUCAGUGAUGUUGAGGUUC [Maanveri]	252	210	234	209	223
AAGGUCACCACUACAGUGAUGUUGUGGGAGCAGGAUAUGCAGAAAUGCAGAAGGGCUCGCUCCCGGUGACCGAAUGAAACAUUCA [Omei KL FMN A SS A v5]	1380	636	981	765	846
AAGGUCACUACUACAGUGAUGUUGUAGGAGCAGGAUAUGCAGAAAUGCAGAAGGGCUCGCUCCAAGUGACCGAAUGAAACAUUCA [Omei KL FMN A SS A v2]	368	430	607	611	482
AAGGUUCGUGGAAGGAGCGCCCGUGCGACUCGUUCACUAAGUGAAGUCCGAGUGAUGUUCGGGCAGGUAGGUCGCCACGGGCAAA [Atonenge]	164	133	152	153	153
AAGUACACGAUAGUGUACACCUAGUGAUGUUAGGAUAUGCAGAUAUGCAGAAGGAGCAAGUCAUCUGACAAUAGUCGGAUGACAA [FmnAX 7 #OpenEnded #K4Early]	315	63.2	89.4	107	80.2
AAGUGUGUGGCGGCCGCCACUAGAAUCCAGUGAUGUUGGAGAUAUCACGUAAGUGAUAUCCACCAUAGGACCGGGCCAUAUAGAA [Same State - Tryptophan B (Freestyle 13)]	1300	758	559	428	483
AAGUGUGUGGCGGCCGCCACUAGAAUCCAGUGAUGUUGGAGUUAUCAUAUAAUUGAUAAUCAACAUAGGACCGGGCCAUAUAGAA [Same State - Tryptophan B (Freestyle 6)]	602	441	540	511	416
AAGUGUGUGGCGGCCGCCACUAGAAUCCAGUGAUGUUGGAGUUAUCAUGUAAAUGAUAAUCAACAUAGGACCGGGCCAUAUAGAA [Same State - Tryptophan B (Freestyle 8)]	630	377	701	441	349
AAGUGUUCUAGUGAUACCAGACAUUUCAAUUACAUUAAUAUAGCUAAGUGAUGUUUAGCAGUCCCUUGGCAGCACUAUUUCACUA [JR_SSTheophyB_Sub016]	130	144	135	149	131
AAUAAAAUCACGGCCGCCACUGAUUACCAUAUUAGGAGUGAUGUUCCUAUGACUAUAUAAUUUAACAGGACCGGGUGAAUAUUUA [JR_ExcTryptoB_Sub011]	105	103	107	106	94.3
AAUAACUAGUAUAUUUUUAAUAAUACAGAUACCAGUGAUAAUAGACACCCUUGGCAGCUGAUCGAGUGAUGUUCGUUUAUUUUAA [#11 K4 Theophylline A Same State]	80.2	86.9	85	129	64.7
AAUAAGCAUGGAAGGAGCGUAGUCCAGUGAUGUUGGAGUUAAAUACCAGUGAUGUUGGUUAUACAGGUAGGUCGCCAUAAAGCUU [Exclusion Arginine B Gf 6]	92.4	64.8	89.3	83.2	75.4
AAUAAGGUCGCCGAUACCAGCGCAGGCAGAGCAAAGCUCUGCCUGGUAGUGAUGUUACCGCGCCCUUGGCAGCGGUGGCACGACC [Omei KL Theo B SS C v5]	64.8	27.1	71.3	71.7	85.9
AAUAAGUGUCAGCGAGUGAUGUUCGACGAUACCAGACUCGAUAGAGUCCCUUGGCAGCGUAACGCAUGCCAAACUGGCACAAUAA [#SwitchBubble 8 #K4Early]	444	444	611	507	450
AAUACGAAGCAGUGAUGUUGCUUAUGAGAAGGAGCGCACGAAAGUGCAGGUAGGUCGCUCAGCCAAGUGGACGAAAACGUCCACA [whbob_SS_Arginine_A_sa108]	96.4	116	98.4	127	90.6
AAUAUAGUGAUGUUAUAUAAGAAGGAGUUACGAGGACCGGUACGGCCGCCACUCGAAACGAGUGAGGGCCCGGGAGAUUGGGCCC [SSTryptA.G]	339	275	320	436	262
ACACAGAGUUGCCGAGUGAUGUUCGGCUUACGAGGACCGGUACGGCCGCCACUCGUUACUCUGUGUUUUGGACACCAAGGCGUAG [Edvemaquan]	565	492	675	497	169
ACCAUCAAAGAUGGCCAGGACACCGCUGAUACCAGAGUGAAAACACUCCCUUGGCAGCAGGUGAGUGAUGUUCACAGUCCAUGGA [Omel KL Theo A SS B v2]	566	422	588	901	361
ACCUACGAUCACAAUAGUGAUUGUAGGAACUAGGAUAUGCUGAAAAGCAGAAGGAGUGAUGUUCCGUCAUGAAUAACAUGACAAA [FmnAX 5 #OpenEnded #K4Late #CoaxialStacking]	251	525	495	594	336
ACGAUCAUGGCAGGAUAUACGAAUGCAUUAGGGCUGCCAGUGAUGUUGGUGGACCGAGGACGUAGAGUAGAAGGGCCGACUUAAA [Leonmain]	138	169	139	86.4	157
ACGCGCGCGAGUGAUGUUCGGAGCGGCUGGCAGGAUAUGUAGCAAUGCAGAAGGGUCGUGGCGCGUCCAGGGUAACCUGGACGCG [#2 Exclusion - FMN A Attempt #26 (HarryS)]	280	229	1040	455	719

Sequence	apparent KD of K4 kissing-loop reporter (input ligand: FMN 200 uM) [nM]	apparent KD of K4 kissing-loop reporter (input ligand: arginine 13.2 mM) [nM]	apparent KD of K4 kissing-loop reporter (input ligand: none) [nM]	apparent KD of K4 kissing-loop reporter [1] [nM]	apparent KD of K4 kissing-loop reporter [2] [nM]
ACGCUAGCUACCGAAAGGUAGCUAGCGAGUGAGGAUAUGUGGAAACACAGAAGGCACAGCGCAGUGAUGUUGUGCGGCGGAAGCG [whbob_SS_FMNA__2th168]	604	221	631	664	473
ACGCUGGAUGAAUAACAUCUAGCGAAAAUUCGAGGACCGGUACGGCCGCCACUCGAGCUAACUGCGAGUGAUGUUCGAUAAUAAA [Mat - Mod of OpenEnded 3 - D6]	196	374	309	497	72.1
ACGUAGUUCUAGGAUACCAGCCAAGGAGCGCAGGACAAAAGUCCUGCCGCCAGUGAUGUUGGCCCUUGGCAGCCUAGAACUACGA [Omei KL Theo B Exc B v1]	193	162	145	165	160
ACGUAGUUCUAGGAUACCAGCCAAGGUCGCCAGGACAAAAGUCCUGGCGCCAGUGAUGUUGGCCCUUGGCAGCCUAGAACUACGA [Omei KL Theo B Exc B v6]	195	176	176	174	203
ACGUAUAUCAGAGGAUAUCGUAUUAAUAUUUUAUCUAUAUAUAUAUGCAGUGAUGUUGCUAUAAUUCGAGAAGGCUGAUUUACGA [JR_ExcFMNB_Sub011]	109	109	84	120	81.4
ACGUCAUAUGUAAUGGUGGUUUCGAUCGAUACCAGUAGCGAGAGUUACCCUUGGCAGCGACAUGAGUGAUGUUCAUGUAUGAAGA [KL-XTheo-A2 #analogue]	116	109	107	120	105
ACUAUCAUUACGCAUGGAGUGAUGUUUCAGCGAGGACCGGUACGGCCGCCACUCGUUACGUGGUUAGAGCCAAUGUUCGAGAAGC [theeternabot_exclusion_KL_Trp_A_39]	1170	832	927	1270	520
ACUAUGGAGUGAUGUUCCCGCGUCAUUGAUACCAGAAUGUAUACCUUCCCUUGGCAGCAAUUCAUCGCACGUAUACUUAUACAAG [theeternabot_sameState_KL_Theo_A_31]	585	541	665	841	541
AGAAGAGUGAUGUUCUUCUAUAUCUCAGAAGGAGCGACAUUAAUGUCAGGUAGGUCGCUGAGAUGAAAUCUCACACAGAUCUUGG [Arg A SS t8a]	145	154	149	178	125
AGAAUAAUAAAUUUGGAGUGAUGUUCCGGACGAGGACCGGUACGGCCGCCACUCGAAAGCAGUCUGCGAAAGCAGACUGCAAGGA [Tesla SS Tryp A 1]	817	449	580	349	645
AGACCACAAAGUGGUCAGUGUUCGCUGCGGCGAGGACCGGUACGGCCGCCACUCGCGAGUGAUGUUCGCGAGCGCAGCGAACACA [Omei KL Tryp A Exc A v3]	89.4	88.8	92.7	65	88.5
AGACCCUGGUAGGAUACCAGCGGCAUGCAGUGCGAGAGAGCGUAGUGAUGUUACGAGACCCGCCCUUGGCAGCCUGGGAAUGUGU [theeternabot_exclusion_KL_Theo_B_50]	90.1	67.8	79.8	75.5	72.6
AGACUACCACACUGUCAAUAGACAGUGAACUCGGAUAUGCUGAUAAGCAGAAGGAGUGAUGUUCCGAGGUAGUCAAUAAAAUAAU [FmnAX 13 C32+G66]	263	316	568	448	521
AGACUACCACACUGUCAAUAGACAGUGAACUCGGAUAUGCUGAUAAGCAGAAGGAGUGAUGUUCCUAGGUAGUCAAUAAAAUAAU [FmnAX 13 C32]	160	242	376	370	359
AGACUACCUACACUGUCAAUAGACAGUGACUAGGAUAUGCUGAUAAGCAGAAGGAGUGAUGUUCCUAAUAAAAGGUGGUAGUCAU [FmnAX 19 #SwitchBubble #StaticStem #K4Early]	309	258	230	284	173
AGACUACUGACAGGAUAUAACAUAUUAGCUCGUAUACCAAAGGUAUACGAGCACCUUCUAGUGAUGUUAGAAGGGUCGGUAGUCA [Omei KL FMN B Exc B v1]	297	99.8	106	96.2	118
AGAGAGGUGUUUUUUUGAUGUGAGUAAUGGCGAGGACCGGUACGGCCGCCACUCGGGUGAUGUUAGUGAUGUUGAUGUAGUGAUG [p'pmullin]	79.4	66.6	71.1	131	77
AGAGUCAGACAAAAGUCUGGCUCAGCCGAAGGAGCGUCCGUAAGGACAGGUAGGUCGCGGCUAUUUGAGUGAUGUUUGGGUUCCU [KL-SSArg-A20]	281	144	231	233	212
AGAGUUAAUUAGUCAUUUUUCACAUUAAGUCAGGAUAUCGUAUUUUCGAGAAGGGACACAUGCUAGUGAUGUUAGCUAUUUCUCA [JR_Nu_ExcFMNA_Sub021]	63.6	93.9	68.3	105	56.9
AGAGUUAUGAGAGGAUAUGCGGCUAGUACUCAAAGAGUACUAGCAGCGGAGUGAUGUUCUGUGAAAGCAGAAGGUUCAUAACUCA [#07 K4 FMN B Same State]	159	1350	1100	907	1350
AGAUCUGUAACAGAUACCAGAGGACGAUGAUCGGACAGUGAUGUUAUCUGUCAGUCGUCGCUCCCUUGGCAGCUGUUACAGAUCA [Omei KL Theo B SS B v3]	78.1	43.1	73.7	94.9	65.2
